Data from US20110021611A1.

Molecular target: CD81 on Huh7.5 cells (human) (UniProt P60033)
Assay: cell-based or functional assay

Sequence of UniProt P60033 (P60033 whole entry): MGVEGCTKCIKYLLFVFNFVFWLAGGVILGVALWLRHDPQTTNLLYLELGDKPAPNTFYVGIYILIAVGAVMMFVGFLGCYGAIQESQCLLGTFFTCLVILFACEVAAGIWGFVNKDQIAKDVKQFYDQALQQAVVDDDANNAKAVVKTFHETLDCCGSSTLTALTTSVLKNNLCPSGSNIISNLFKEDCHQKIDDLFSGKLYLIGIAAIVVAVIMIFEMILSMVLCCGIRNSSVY

Substance: anti-CD81 (JS-81, BD Biosciences, Pharmingen) (antibody)
- inhibition of infection of Huh7.5 cells with SA13/JFH1C3405G-A3696G virus (FFU count): 90 % inhibition
